Values quoted from earlier work, collected in paper PMC10062658.

Molecular target: PTH1R (Homo sapiens) (UniProt Q03431)
Sequence of UniProt Q03431 (Q03431 27-593): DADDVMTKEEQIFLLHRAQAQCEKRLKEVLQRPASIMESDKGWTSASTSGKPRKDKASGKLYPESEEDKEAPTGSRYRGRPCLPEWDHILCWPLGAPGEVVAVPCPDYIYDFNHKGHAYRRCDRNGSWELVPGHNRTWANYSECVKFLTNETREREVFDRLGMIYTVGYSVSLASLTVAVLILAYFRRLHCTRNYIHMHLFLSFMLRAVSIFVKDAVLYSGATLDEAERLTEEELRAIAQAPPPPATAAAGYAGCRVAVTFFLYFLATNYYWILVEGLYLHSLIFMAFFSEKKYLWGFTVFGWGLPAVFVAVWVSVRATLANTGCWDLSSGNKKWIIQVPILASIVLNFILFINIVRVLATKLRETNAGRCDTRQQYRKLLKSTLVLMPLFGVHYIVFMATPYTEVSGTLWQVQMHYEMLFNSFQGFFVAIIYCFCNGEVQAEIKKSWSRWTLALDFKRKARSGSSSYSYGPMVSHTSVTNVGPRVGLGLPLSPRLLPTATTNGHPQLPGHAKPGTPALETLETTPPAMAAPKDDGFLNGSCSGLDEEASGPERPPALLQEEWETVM

- Kd: 1 nM
Substance: PTH (from UniProt P01270)
